The values that follow come from the DeepSol protein solubility set.

This series can be described thus: soluble on expression in E. coli; label from the status in PepcDB or PDB records.
Take “MAHHHHHHMPSGDAMIPRVCRTFSDAFASDEATAKEQGKKYWISRVLGSGATGTVLCAKRRSDGQSFAVKVVEMEGMSEADKNRAQAEVQCLLNCDFFSILKCHEDFAKKDPADEENVLMVALVLDYANAGDLRQEIKNRAKAARAFREHEAGLLFIQVLLAIHHVHSRHMIHRDIKTANILLCSNGLVKLGDFGFSKMYSATVSGDVGKTFCGTPYYVAPEIWRRKPYSKKADIFSLGVLLYELLTLKRPFDGENMQEVMQKALAGRYDPLPPTISPEMTEVVTSLLCGDPHARPSSSKLLNMPICKLFVSGLLEIVQTQPSFAGPLRDTISTHIQSVKQSLKEERRVTVRQMEESQSAAAASTTILEGATPMGSVGDLTLYEGIVKKQSGDLAWKRRYLCIRGALEEGERLDVGRMPKFKSLDLVLAVSKETMRQQCITTPFSELEDVFPVASKYTGSNAQHVFAVAFKTGRRLLFQARGDPERDAWMQKIQQTLGIDEAD”: the “soluble on expression in E. coli” value is “soluble”.
Then “MSLIARRNPIEQLPAIAQDPDKFGVLLSAAEFRTHLVESIRQARKRIYLVALYLENDDAGREILTELYAAKQRNPGLEIHICVDWHRAQRGLIGAAESEGNAAMYRDFAQQHEHCIPVYGIPVRGREVFGVLHLKGFIIDDQVIYSGASLNNVYLQFHGRYRFDRYHTLENAELADSMVHFIQQEMLAHPAVNNLACGSKPTTKEIKSDIRQFRASLAQANYQFAKQKVNEGQVAVTPLVGLGRRRNRLNQSIIQLLASAKDEVFICTPYFNFPPSIAKEVKKALRRGVKVHIVIGDKTANDFYIAPEEPFKTIGGLPYLYELNLRRFAKANEAHIASRKLSIHLWKHENHSFHLKGIWVDKRYMLITGNNLNPRAWKLDLENAILIRDDYHHLTTKFEAEIDNILQHTQLICTYKQIEKPEHYPEKVQRLVRRIMRLKADRVLKQILEGHHHHHH”, with “not soluble”; and “MIFGRSQRGKPPVEPVTLKILVAGGFGVGKTTLVGAVSEIRPLRTEELLTEAGRPVDDVSGVEGKHTTTVAMDFGRITLREDLVLYLFGTPGQERFWFMWDELSEGALGAVVLADTRRLEDCFAAIDYFERRSIPFVVGVNCFEGSARYPGETVRQALDLDEDVPLVMCDARDRESVKEVLIGVVQHAMTQAADRRRAVPTLEHHHHHH”, with “not soluble”; and “MRTLFYSQLMYEAAKRQPHPHRCADGRTIADLSAQDLKKLNIAQLFFVAGRESEASYGDAYHRYHLYGAKQFEEYARKHLTHLFSEKEIVLYSRCIEDRIGDRFDETAEGYLIHLSHMIDLMRCKSPVEVFIGHSRGVSGIVPTLIQLFGREDGLDIMHYARSLFAATGEAVPYISSSEWPHLGIESDRVERALKIVGPLEVEGQEADAKKTAQAGFSVDGCYGALVKVDTPDWYHQVKEKEDYDVDEVIALPPQITIREEPPKANESFLLSLLRHVFWCCPSNQKRDDENTDVLEKKAQL”, with “not soluble”.
Then “MELTFNQAAKGVNKEFTVNIMDTCERCNGKGNEPGTKVQHCHYCGGSGMETINTGPFVMRSTCRRCGGRGSIIISPCVVCRGAGQAKQKKR”, with “soluble”.
Consider “MHGITIDSGRALDMLASMIEEAEQQYQAHMRETPHYEPASAGEGFVAYGESINSLFQLLHQRNAQRLELIKLGLEDARQRVHDLSNTDTEFAARLGAVE”, for which the “soluble on expression in E. coli” value is on record as “not soluble”.
Then “MVSNSSITFKEFVDYWFEAYASTAVKPSTQKRYRQLLKPALRAIGNKPLNKVKPLDIQNIYIALAGTQSNCTILKLHRLLHEIFKHAQMWEYISDNPVKKVVPPTPEKKVFDLEHHHHHH”, with “not soluble”; and “GAMGSMATRIAILGAGPSGMAQLRAFQSAQEKGAEIPELVCFEKQADWGGQWNYTWRTGLDENGEPVHSSMYRYLWSNGPKECLEFADYTFDEHFGKPIASYPPREVLWDYIKGRVEKAGVRKYIRFNTAVRHVEFNEDSQTFTVTVQDHTTDTIYSAAFDYVVCCTGHFSTPYVPEFEGFEKFGGRILHAHDFRDALEFKDKTVLLVGSSYSAEDIGSQCYKYGAKKLISCYRTAPMGYKWPENWDERPNLVRVDTENAYFADGSSEKVDAIILCTGYIHHFPFLNDDLRLVTNNRLWPLNLYKGVVWEDNPKFFYIGMQDQWYSFNMFDAQAWYARDVIMGRLPLPSKEEMKADSMAWREKELTLVTAEEMYTYQGDYIQNLIDMTDYPSFDIPATNKTFLEWKHHKKENIMTFRDHSYRSLMTGTMAPKHHTPWIDALDDSLEAYLSDKSEIPVAKEA”, with “soluble”; and “MKIAIVGSGNGAVTAAVDMVSKGHDVKLYCRNQSISKFQNAIEKGGFDFNNEGDERFVKFTDISDDMEYVLKDAEIVQVIIPSSYIEYYADVMAEHVTDNQLIFFNMAAAMGSIRFMNVLEDRHIETKPQLAEANTLTYGTRVDFENAAVDLSLNVRRIFFSTYDRSCLNDCYDKVSSIYDHLVKEESLIKTNLENGNPEVHPGPTLLNVGRIDYAGEFALYKEGITKHTVRLLHAIELERLNLGRRLGFELSTAKESRIERGYLERDKEDEPLNRLFNTSPVFSQIPGPNHVESRYLTEDIAYGLVLWSSLGRVIDVPTPNIDAVIVIASTILERDFFEEGLTVEEIGLDKLDLEKYLK”, with “not soluble”.
The result for “MVIHKINKLIATIKTQGIRKAIVKVAAQFKFSYKYYFIYTYNLNSSSPAIAVNEAINTNENDYSIKWWSESDFCKNKTTYLEKRSDMTDSYIENWLPLGHQTVVARSLPNNDIIGDMWLAFDNFPFPSKSKSLRDWAIENHYGYAFMAFVQPSHRGKKILPCLMNEQLKLVKDNNKKGLMALIMPKSKSSHKSFSSMGFKRVGKLHVLQLFSNNHTWISV” reads “not soluble”; that for “MSLVYLNSNFLYGDDFEPKKGTLVIEDEIIKGFTSEHHSNVLNYKGLVIPPLINSHTHIGDNSIKDIGIGKSLDELVKPPNGLKHKFLNTCSEKELVQGMSEGLYDLENNGIKAFCDFRENGLNGINSLKSAFEDSNVSIKPIILGRPTQREENLLKDEISIILDNCDGLGLSGSNEYSDQELKFICKLVNKKILSIHANEHKGSVQYSKEKYGISEIERLINLNIKPDFLIHATHSSSDDLSLLNENKIPVVVCPRANASFNVGLPDIPKMLEYNLKLGIGTDNFMANSPSIFKEMDFIYKIYHVDPKEILKMATINGAEILGLQNTGVIKEGYIPTFTFIKNGNILKTSKNIAASVVTRLENGDVDSKFLVCEGHHHHHH”, “not soluble”.
The result for “MSLTSTIIDVRAKLYTWKGDVQKIHENFCTNAADLVNQDNISNDRWATYKFLSWLVVEVETSDGHIGIGNAALSPKPCKSVVDNYLKPAIIGESIWDYEHIWQKMYRQTLAWGRKGIGMTAISAVDIAIWDALGKTVKQPVFKLLGGKTKSKLPCYASKLYSQPLDSLAKEAKDYLDQGFKAMKLRLGWGPNDGAEGMRKNIELIRTVRSVVGEDVDLMADVYMGWTFEYAKRMMRLIDNENLRWLEEPVIADDIDGYADLKASCQTPISGGEHEYTLFGFRQLLEKKAVDVVQFDTNRVGGITQAHKICALAEAFQIPVIPHAGQVHNFHISMSSINAPIVEYFPFWPVEIGNELFWYIFDGEPQAKDGYIELDDTKPGLGIELSEKYLKDFVIEVEGHHHHHH” reads “soluble”; that for “MNKAQIEIYYCRQCNWMLRSAWLSQELLHTFSEEIEYVALHPDTGGRFEIFCNGVQIWERKQEGGFPEAKVLKQRVRDLIDPERDLGHVDRPSSTQSLEHHHHHH”, “soluble”.
“MFRILTINPGSTSTKLSIFEDERMVKMQNFSHSPDELGRFQKILDQLEFREKIARQFVEETGYSLSSFSAFVSRGGLLDPIPGGVYLVDGLMIKTLKSGKNGEHASNLGAIIAHRFSSETGVPAYVVDPVVVDEMEDVARVSGHPNYQRKSIFHALNQKTVAKEVARMMNKRYEEMNLVVAHMGGGISIAAHRKGRVIDVNNALDGDGPFTPERSGTLPLTQLVDLCFSGKFTYEEMKKRIVGNGGLVAYLGTSDAREVVRRIKQGDEWAKRVYRAMAYQIAKWIGKMAAVLKGEVDFIVLTGGLAHEKEFLVPWITKRVSFIAPVLVFPGSNEEKALALSALRVLRGEEKPKNYSEESRRWRERYDSYLDGILRHHHHHH”: the “soluble on expression in E. coli” value was “soluble”.
For the sequence “MTITDKNRLTGEADPRRTSLYGPPSMDALTERALHLARAGRALLGIVGEPGAGKSTFAEQLRARLEKERPGLAVTVSMDGFHLAQKVIEARGQAADKGTIDTFDADGFVALLRRTRAETGDTENTESTVWWPEFDRDLEDPVAGSIEVAPHHRLVIVDGNFLLSAQEPWRQVKGLLDETWFLDALPEPRRERLTRRYISYGFTPEAARAKTLGVDEDTSALIRSTVSRADLVIGEARESGGVSDC”, the “soluble on expression in E. coli” value is on record as “not soluble”.
The result for “PLWVAPDGHIFLEAFSPVYKYAQDFLVAIAEPVCRPTHVHEYKLTAYSLYAAVSVGLQTSDITEYLRKLSKTGVPDGIMQFIKLCTVSYGKVKLVLKHNRYFVESCHPDVIQHLLQDPVIRECRLRNSEGEATELITETF” reads “not soluble”.
The result for “MGGDADSPRERIEALAEDDHVEMRRAVDSAITSDAAAIIVIAGVGGATGSVIAPKLTDALQRIYDRPVYAVSVLPATHEEVPPENPARAIAAFESAANAQLVFDNDAWVDDRNDVEDVTDGLNAELAMRLGALFSAGEAVTAESVGQRVVDASEVISTLDEGGLATIGFARQPLGTDGDDGSLLDRARELVGMDETTVDEVESIKAVETTLRQATNGRLTFDCPRDAARSGLLVVSGPPEWLHQTAVSDGQSWLADEIGSVQLRTGDNPMPGGDELTILVLLGGIRGAPRIKEIQAATDLEHHHHHH” reads “not soluble”; that for “MESQLPKFLKEPEKYSRLRLLEALQELYLSIEMLKEGYSRNSASKLFLSWKALLSSIVVTNFGKIMETKKKEGKEDEIKWYMRIGYSAPTTGLIGIARDLENLGFKGLVNLTTAMLGIHRYAYNGLDEDISPFHSRSEAIISIKGLIKAEVEIVGSMKFGDEEKELFEKIKRELNNILEHHHHHH”, “not soluble”; that for “MSLATISKITVQKKAKQRYNVFIGKPGAERFAFSVDEAILVKYGLRKGLELDENEIKALIEADELKKTHHLALHYLSYRMRTEKEIRDYLKEKDRLDEHIEKTIVSLKAEKLIDDRAFAEAFARSKTAQTLIGPNKIRQQLLQKGVNAEAMAKALSPYQIKWQIDVLTAWLDKQERRAVNRRESNEQLKQKRTHQLLAKGFEYEAIQAALANREANEDNEWEALVYQGEKLLKSYVKKYNGRELTYKLKQALYRKGFALSKIDRFLQTEMEGEEGHHHHHH”, “soluble”.
Then “SLLDTLLINIGQLLTMDQEDGLLRREAMNTLPVIENGAVGIENGVITFVGTAEEAKGLQAKEVIDCGGKMVSPGLVDPHTHLVFGGSRENEIALKLQGVPYLEILEQGGGILSTVNATKQSSKEELVQKAKFHLDRMLSFGVTTVEAKSGYGLDDETEWKQLEATAQLQKEHPIDLVSTFLGAHAVPKEYKGRSKEFLQWMLDLLPEMKEKQLAEFVDIFCETGVFSVEESKEFLLKAKELGFDVKIHADEIDPLGGAEAAAEIGAASADHLVGASDKGIEMLANSNTVATLLPGTTFYLNKESFARGRKMIDEGVAVALATDFNPGSCPTENIQLIMSIAMLKLKMTPEEVWNAVTVNSSYAINRGDVAGKIRVGRKADLVLWDAYNYAYVPYHYGVSHVNTVWKNGNIAYTRGEQSWSTATI”, with “soluble”.
In the case of “MGSDKIHHHHHHMFTQDESYIKWKLFLEGDDQAYSWIYTHYIQVLYNYGLQITPDSEIVKDCIQDVFVKIYKAKKKLTVPQNPKVYLMIALKNNIYNTFNQERLQKNYAFSLYQTEEQLTVKNEFIDQEARHEEMNNIKRMMKILTPRQREVIYYRFIEELSYDDICQIMGLNYQSAYNLLQRSLQKIREAYGVTGIWMLILHQLTYLH”, the “soluble on expression in E. coli” value is recorded as “not soluble”.
